Reference: article doi:10.1101/419051 (bioRxiv, 2018)
Values belong to the binder of their own block, whether it stands above or below them.

Target: Rpt6 (human, UniProt P62195 1-406)
Assay: cryo-EM structure

binding result: binds
B1: α3 subunit of the CP (natural protein)
chain: MSRRYDSRTTIFSPEGRLYQVEYAMEAIGHAGTCLGILANDGVLLAAERRNIHKLLDEVFFSEKIYKLNEDMACSVAGITSDANVLTNELRLIAQRYLLQYQEPIPCEQLVTALCDIKQAYTQFGGKRPFGVSLLYIGWDKHYGFQLYQSDPSGNYGGWKATCIGNNSAAAVSMLKQDYKEGEMTLKSALALAIKVLNKTMDVSKLSAEKVEIATLTRENGKTVIRVLKQKEVEQLIKKHEEEEAKAEREKKEKEQKEKDK

binding result: binds
B2: α2 subunit of the CP (natural protein)
chain: MAERGYSFSLTTFSPSGKLVQIEYALAAVAGGAPSVGIKAANGVVLATEKKQKSILYDERSVHKVEPITKHIGLVYSGMGPDYRVLVHRARKLAQQYYLVYQEPIPTAQLVQRVASVMQEYTQSGGVRPFGVSLLICGWNEGRPYLFQSDPSGAYFAWKATAMGKNYVNGKTFLEKRYNEDLELEDAIHTAILTLKESFEGQMTEDNIEVGICNEAGFRRLTPTEVKDYLAAIA
